The numbers were not newly measured in paper PMC7955094, which cites them from elsewhere.

As usually defined, the pKa is the negative logarithm of the acid dissociation constant.

This series deals with His19 (UniProt position 19, ILSALHFMAWT). Particulars: membrane-bound BM2 tetramer, wild type.

As to “Influenza B virus M2 protein (BM2) proton channel (Influenza B virus (this article's own samples use strain B/Maryland/1/2001; the strain of the quoted pKa study is not stated))”, the pKa is given as 5.1.
